Measured values published in PMC5655446.

Target: Vibrio cholerae ApbE (alternative pyrimidine biosynthesis protein), recombinant, without the leader sequence (Vibrio cholerae) (UniProt A5F5Y3)
Sequence (A5F5Y3 18-334): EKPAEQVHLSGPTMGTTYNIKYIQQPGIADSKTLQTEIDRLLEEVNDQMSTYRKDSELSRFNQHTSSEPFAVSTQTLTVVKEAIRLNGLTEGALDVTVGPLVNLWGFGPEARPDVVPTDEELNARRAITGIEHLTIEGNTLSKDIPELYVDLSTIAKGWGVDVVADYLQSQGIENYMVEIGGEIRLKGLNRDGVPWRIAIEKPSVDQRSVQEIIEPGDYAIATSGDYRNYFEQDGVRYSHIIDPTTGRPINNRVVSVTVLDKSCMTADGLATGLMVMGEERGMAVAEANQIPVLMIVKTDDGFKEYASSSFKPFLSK

## Vibrio cholerae NqrC (subunit C of Na+-NQR), soluble, without the N-terminal transmembrane helix (domain or fragment)
  Km for NqrC in the steady-state flavin transfer activity of ApbE (NqrC varied, FAD 1 mM, pH 9.0): > 100 μM
